# Data taken from paper PMC5849085 (Immunity, 2017).
# T1: human IL-1RAcP (residues 1-350) fused to human IgG1-Fc (human, UniProt Q9NPH3 21-350)
# T1 sequence (looked up): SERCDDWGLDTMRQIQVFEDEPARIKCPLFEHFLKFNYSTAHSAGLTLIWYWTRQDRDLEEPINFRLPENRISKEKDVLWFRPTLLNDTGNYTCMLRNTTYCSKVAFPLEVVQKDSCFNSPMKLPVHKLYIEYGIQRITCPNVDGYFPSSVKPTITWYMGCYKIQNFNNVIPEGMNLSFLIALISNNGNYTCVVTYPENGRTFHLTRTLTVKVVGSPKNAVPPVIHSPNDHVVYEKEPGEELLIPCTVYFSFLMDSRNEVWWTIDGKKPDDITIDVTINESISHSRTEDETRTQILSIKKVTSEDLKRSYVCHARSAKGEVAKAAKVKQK
# T2: human IL-1RAcP (residues 1-350) (human, UniProt Q9NPH3 21-350)
# T2 sequence (looked up): T1 sequence (looked up)
# B1: human IL-33:ST2 binary complex (complex)
# chain 1: SITGISPITEYLASLSTYNDQSITFALEDESYEIYVEDLKKDEKKDKVLLSYYESQHPSNESGDGVDGKMLMVTLSPTKDFWLHANNKEHSVELHKCEKPLPDQAFFVLHNMHSNCVSFECKTDPGVFIGVKDNHLALIKVDSSENLCTENILFKLSET
# chain 2: QTGKFSKQSWGLENEALIVRCPRQGKPSYTVDWYYSQTNKSIPTQERNRVFASGQLLKFLPAAVADSGIYTCIVRSPTFNRTGYANVTIYKKQSDCNVPDYLMYSTVSGSEKNSKIYCPTIDLYNWTAPLEWFKNCQALQGSRYRAHKSFLVIDNVMTEDAGDYTCKFIHNENGANYSVTATRSFTVKDEQGFSLFPVIGAPAQNEIKEVEIGKNANLTCSACFGKGTQFLAAVLWQLNGTKITDFGEPRIQQEEGQNQSFSNGLACLDMVLRIADVKEEDLLLQYDCLALNLHGLRRHTVRLSRK
# Columns and labels:
# [1] = molecular target: T1, human IL-1RAcP (residues 1-350) fused …; assay: SPR
# [2] = molecular target: T2, human IL-1RAcP (residues 1-350); assay: HDX-MS
binder,measurement,setting,value
B1,half-life of the ternary complex,[1],26 min
same,half-life of the ternary complex (EX1 kinetics of IL-1RAcP(150-156)),[2],10 min
